Tests used:
Conditions in all cases: EMSA: 10 mM Tris-HCl pH 7.5, 50 mM KCl, 5 mM MgCl2, 2.5% glycerol, 1 mM DTT, 50 ug/mL poly dI-dC, 20 fmol probe, room temperature 25 min (20 min in Fig …)
[1] = molecular target: T1, EcxR (Ehrlichia chaffeensis) (UniProt Q2GG40); test: EMSA
T1 sequence: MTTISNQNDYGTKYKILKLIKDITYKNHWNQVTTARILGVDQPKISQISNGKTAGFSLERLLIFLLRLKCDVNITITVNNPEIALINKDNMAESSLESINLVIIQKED

[2] = molecular target: T1, EcxR (Ehrlichia chaffeensis); test: Southwestern blot
[3] = molecular target: T2, Tr1 (Ehrlichia chaffeensis) (UniProt Q2GF81); test: Southwestern blot
T2 sequence: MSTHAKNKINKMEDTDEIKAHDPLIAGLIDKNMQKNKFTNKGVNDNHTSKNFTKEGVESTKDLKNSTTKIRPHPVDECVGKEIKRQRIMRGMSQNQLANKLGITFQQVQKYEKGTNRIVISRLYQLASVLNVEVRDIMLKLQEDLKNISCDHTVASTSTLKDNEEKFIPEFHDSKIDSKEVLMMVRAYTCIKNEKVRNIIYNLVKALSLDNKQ

ATATAACCTAATAGTGACAAATAAATTAACAATAGTAGAAGTGTCATATAAAAGCAAGTCAGAATATAAATTTTTGTATAAAATATCGGTAACTTTTGTAAGGAAAATTTAATATATTACGTCAG (double strand) [p28-Omp19-P3]
binding [1]: binds

CAGGAGTTACTCCATGTGCAAGTAGTATCTTGTAAACACTAGTGTCTTTAACAACTGCAAGAGCTTGTAATAATCTCTCCACAGTTACATAAGTATCCTGATTCCTTTTTGCTAAACTAATAGCTTCTTCTAAAACCTGAGCCATTTCTTTTGATAAATGTATATGACCACTACCACTTCCACTTACAACAGGTAATTTACTTAAGGAGAGTTTTATATCACTGTATATCTTATCAATATCACATCCACATGAAGTCAGCAACA (double strand) [clpB-ORF]
binding [1]: no binding

CTACCTCTATAAAAAAATAAATTATCAGTAGCATCAGATACTACTAGCTAAGATCATATATAATATCAAGAAATCTAATTTCAAGTATCAATCAATAAATTTTATAATACATATTGCACAAATGTTTACAAGGTTAGAACTTTATAGGACCCAGTAGAAATATTATATTACTCTGTAACAGTTTACATAACACATAAAAAATCAATTGACTTGATACTGAAAACATCGTTGATATTTAAGTAGTTAATTTTTTAAGTAAGTTAGCATGCGCTG (double strand) [groES/L promoter (SWB probe)]
binding [2]: binds

CTTTTGTAAGGAAAATTTAATATATTACGTCAGGTAAGTAATAGCAAAAAAACTGGTTAAGTATAGTATCATGTGTAAAGGTGAGAAAAACAGCAC (double strand) [p28-Omp19-P2]
binding [1]: binds

GACTCTAGACTTTTAATTTTATTATTGCCACATGTTAAAAATAATCTAAACTTGTTTTTATTATTGCTGCAGGTAAATAAAAATAGTGGCAAAAGAATGTAGCAATAAGAGGGGGGGGGGGGGGACTAGTTTATAAGTGC (double strand) [p28-Omp19-P1]
binding [1]: no binding

GATTAATAGATTCTAGGGAACTCTCTGCCATATTGTCTTTGTTAATTAATGCAATTTCTGGGTTATTGACAGTGATTGTTATATTCACATCACATTTTAGACGTAACAAAAATATAAGTAAACGTTCTAATGAAAATCCTGCTGTTTTACCATTACTAATCTGAGATATTTTTGGTTGGTCTACGCCCAGTATCCTTGCTGTGGTTACTTGGTTCCAGTGATTCTTA (double strand) [ecxR-ORF]
binding [1]: no binding

GGATAAGTACTTTAGCAAGTGGTAAAAGCAAGTCTACTCATATTTTTATTAATTAAGTAGTAAAGTTAACTATAGATTTTATTAAAATTTTTATTCTAATCACTTTAAATATCAATTACTTTTGTTGTAAATTTGAAAGAAATTTTATATTCTAGAC (double strand) [p28-Omp14-P5]
binding [1]: no binding

GGTGTTTTTATAATTTTATTACTAAGATATTTTTTTATTAATAACTATATGCCAATACAGATAGTATAAGTATCTTATAATAAATCCATCATCTTAATGTAAGTAATACATATAACTAATAACAATAATATATTAACATTTTTATAGAATATCTATCATAATCAAACATTAACTAAATTCTCTACTAGCAGTAAATTGAATATCTACAATTTACACGTTCTACTGTTTTGCTTGCCAACTTAATTGATACTGCTTATCATCTGAATATCAAAAGATGATAGGGTACTGT (double strand) [clpB promoter (SWB probe)]
binding [2]: binds

GGTGTTTTTATAATTTTATTACTAAGATATTTTTTTATTAATAACTATATGCCAATACAGATAGTATAAGTATCTTATAATAAATCCATCATCTTAATGTAAGTAATACATATAACTAATAACAATAATATATTAACATTTTTATAGAATATCTATCATAATCAAACATTAACTAAATTCTCTACTAGCAGTAAATTGAATATCTACAATTTACACGTTCTACTGTTTTGCTTGCCAACTTAATTGATACTGCTTATCATCTGAATATCAAAAGATGATAGGGTACTGT (double strand) [clpB promoter EMSA probe]
binding [1]: binds

GGTTTAGCCATTTTAAATGTGTTTAAAAAGAAATCTTTTTGACATTATTGTAAACTTATGATTTTTATTAAGGGGAAGAGTGAACAAAATACTGTTATTAGAAGTTTACAGAAAGTTAACTG (double strand) [p28-Omp14-P2]
binding [1]: no binding

GTACCTAAATCTATACCTATAACAGCCATAAATAGCCCCCTTACATAAAAATCAAAACTATAATCACAGATATAATAACCAAATCATAAGATTACAACCCCATTTAACACAAGTTCATAAATTTATGAA (double strand) [dnaK promoter EMSA probe]
binding [1]: binds

GTACCTAAATCTATACCTATAACAGCCATAAATAGCCCCCTTACATAAAAATCAAAACTATAATCACAGATATAATAACCAAATCATAAGATTACAACCCCATTTAACACAAGTTCATAAATTTATGGCATGCGCTG (double strand) [dnaK promoter (SWB probe)]
binding [2]: binds

GTTCCGTATTTATTAATATATGTTATAATGTAATTAAATAAGGATACTAGATTTGCTCATAATGCATGTACTGAATTTGTGATTTGAAATAACAAGACTTAAATGTCGAATTTAGCTTCTGTCCTAGTGGATAAGTACTTTAGCAAGTGGTAAAAGCAAGTCTACTCATATTTTTATTAATTAAGTAGTAAAGTTAACTATAG (double strand) [p28-Omp14-P4]
binding [1]: binds

GTTTTCTGCTTTATTAGAATGATTCCCAAATAAATTTTAATTAATTACTGTTCCGTATTTATTAATATATGTTATAATGTAATTAAATAAGGATACTAGATTTGCTCATAATGCATGTAC (double strand) [p28-Omp14-P3]
binding [1]: binds

TAACTTACTTAAAAAATTAACTACTTAAATATCAACGATGTTTTCAGTATCAAGTCAATTGATTTTTTATGTGTTATGTAAACTGTTACAGAGTAATATAATATTTCTACTGGGTCCTATAAAGTTCTAACCTTGTAAACATTTGTGCAATATGTATTATAAAATTTATTGATTGATACTTGAAATTAGATTTCTTGATATTATATATGATCTTAGCTAGTAGTATCTGATGCTACTGATAATTTATTTTTTTATAGAGGTAG (double strand) [groES/L promoter EMSA probe]
binding [1]: binds

TACCCGGACAAACTGACTTTCATGTTTAATATAAATTATTGATCCAATCAAGCTAAAAAGTAAATAAATTTTATCTTATATTTCATAAAGCATAATATGTTATTTCTGTATATTATATAATTAGTATACTATTCCAGCAAACTAGATAGAATATATCCATTAAATAACTATTGCATTCACTTTATGCATGATTTATCTTACATAGGTTGCTTTGT (double strand) [tr1 promoter (SWB probe)]
binding [2]: binds | binding [3]: binds

TTGCTCAACCATAAAATAATGGGAAATTACCTTTTCTAGGAAGTTTCTCATTATTTAACAGTTAACTTTCTGTAAACTTCTAATAACAGTATTTTGTTCACTCTTCCCCTTAATAAAAATCATAAGTTTACAATAATGTCAAAAAGATTTCTTTTTAAACACATTTAAAATGGCTAAACC (double strand) [p28-Omp14-P1]
binding [1]: binds
